Blank lines part the entries; values can stand above or below the binder they belong to.
Key:
Details in all cases: remark: other sources report otherwise
[1] = biological target: T1, Trigger Factor (TF), full length, residues 1-432 (E. coli), P0A850; assay: SEC-MALS; concentration series of full-length TF and full-length mutants alone, 26 °C, sample buffer (20 mM K-phosphate pH 6.5, 100 mM KCl, 0.5 mM EDTA); fit to a fast monomer-dimer equilibrium; dimer to monomers
T1 chain: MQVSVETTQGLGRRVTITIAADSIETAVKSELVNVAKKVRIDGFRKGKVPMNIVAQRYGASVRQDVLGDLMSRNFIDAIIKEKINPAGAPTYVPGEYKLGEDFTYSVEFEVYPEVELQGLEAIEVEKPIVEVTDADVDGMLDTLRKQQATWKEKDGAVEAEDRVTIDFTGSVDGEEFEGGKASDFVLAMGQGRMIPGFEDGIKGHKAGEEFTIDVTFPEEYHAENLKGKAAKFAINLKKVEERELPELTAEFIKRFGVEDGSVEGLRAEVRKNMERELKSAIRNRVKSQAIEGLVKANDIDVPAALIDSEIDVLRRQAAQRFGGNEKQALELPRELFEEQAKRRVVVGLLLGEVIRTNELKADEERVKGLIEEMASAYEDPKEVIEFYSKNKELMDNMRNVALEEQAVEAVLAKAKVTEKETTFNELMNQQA

[2] = biological target: T2, Trigger Factor (TF), full length, residues 1–432 (E. coli), P0A850; assay: AUC; sedimentation equilibrium, 6 °C, 100 mM KCl (sample buffer: 20 mM K-phosphate pH 6.5, 100 mM KCl, 0.5 mM EDTA); 12 μM TF, 48 and 135 μM RBD–SBD; global fit to a monomer–dimer model; dimer to monomers
T2 chain: T1 chain

[3] = biological target: T2, Trigger Factor (TF), full length, …; assay: real-time NMR spin-label exchange (intermolecular PRE); 15 °C; 100 µM [U-2H,15N] TF mixed with 100 μM OXYL-1-NHS-labeled TF in sample buffer; decay of the 15N-filtered signal fitted to the lifetime of the dimer
[4] = biological target: T2, Trigger Factor (TF), full length, …; assay: real-time NMR spin-label exchange (intermolecular PRE); 35 °C; 100 µM [U-2H,15N] TF mixed with 100 μM OXYL-1-NHS-labeled TF in sample buffer; decay of the 15N-filtered signal fitted to the lifetime of the dimer
[5] = biological target: T2, Trigger Factor (TF), full length, …; assay: SEC-MALS; as a2 but 500 mM KCl; dimer to monomers
[6] = biological target: T2, Trigger Factor (TF), full length, …; assay: SEC-MALS; sample buffer (20 mM K-phosphate pH 6.5, 100 mM KCl, 0.5 mM EDTA); 6 °C for the individual domains; concentration series fitted to a fast monomer–dimer equilibrium; dimer to monomers
[7] = biological target: T2, Trigger Factor (TF), full length, …; assay: SEC-MALS; as a2 but 250 mM KCl; dimer to monomers

Kd [1]: 1100 nM
B1: Trigger Factor (TF), full length, residues 1-432, P0A850 1-432 (natural protein)
chain: T1 chain

Kd [2]: 3.3 µM
lifetime of the dimer [3]: 15.8 min
lifetime of the dimer [4]: 2.6 min
Kd [5]: 30 µM
Kd [6]: 1700 nM
stoichiometry N [6]: 2
Kd [7]: 9 µM
B2: Trigger Factor (TF), full length, residues 1–432, P0A850 1-432 (natural protein)
chain: T1 chain

Source: paper PMC5722895
